# In the DeepSol protein solubility set:
# Test: soluble on expression in E. coli; label from the status in PepcDB or PDB records
row,Sequence,soluble on expression in E. coli
1,MAFEGLSERLQATMQKMRGKGKLTEADIKIMMREVRLALLEADVNFKVVKEFIKTVSERALGSDVMQSLTPGQQVIKIVQDELTQLMGGENTSINMSNKPPTVVMMVGLQGAGKTTTAGKLALLMRKKYNKKPMLVAADIYRPAAINQLQTVGKQIDIPVYSEGDQVKPQQIVTNALKHAKEEHLDFVIIDTAGRLHIDEALMNELKEVKDIAKPNEIMLVVDSMTGQDAVNVAESFDDQLDVTGVTLTKLDGDTRGGAALSIRSVTQKPIKFVGMSEKLDGLELFHPERMASRILGMGDVLSLIEKAQQDVDQEKAKDLEKKMRESSFTLDDFLEQLDQVKNLGPLDDIMKMIPGMNKMKGLDKLNMSEKQIDHIKAIIQSMTPAERNNPDTLNVSRKKRIAKGSGRSLQEVNRLMKQFNDMKKMMKQFTGGGKGKKGKRNQMQNMLKGMNLPF,not soluble
2,AMDFPQQLEACVKQANQALSRFIAPLPFQNTPVVETMQYGALLGGKRLRPFLVYATGHMFGVSTNTLDAPAAAVECIHAYSLIHDDLPAMDDDDLRRGLPTCHVKFGEANAILAGDALQTLAFSILSDADMPEVSDRDRISMISELASASGIAGMCGGQALDLDAEGKHVPLDALERIHRHKTGALIRAAVRLGALSAGDKGRRALPVLDKYAESIGLAFQVQDDILDVVGDTATLGKRQGADQQLGKSTYPALLGLEQARKKARDLIDDARQSLKQLAEQSLDTSALEALADYIIQRNK,soluble
3,MRTVALGIVAMACLVAIAHGGNFFQDAEVSWGQGRGKIVDGGRGLDLTLDRSSGSGFQSKSEYLFGKIDMQIKLVPGGWWNQELSDMSYRRMRWVQRKFMIYNYCTDAKRFPQGTPAECKLR,not soluble
4,MTTPKTFVPELLSPAGSLKNMRYAFAYGADAVYAGQPRYSLRVRNNEFNHENLQIGINEAHALGKKFYVVCNIQPHNSKLKTFIRDLKPVIDMGPDALIMSDPGLIMMVREEFPHMPIHLSVQANAVNWATVKFWASQGVERVIVSRELSLEEIEEIREKCPNTEIEVFVHGALCMAYSGRCLLSGYINKRDPNQGTCTNACRWEYKVEAAKEDEAGQIVEQFDPNAAQAIEVQNERPDTTIGAGKPIDDVVLLSESHRPDEKMAAFEDEHGTYIMNSKDLRAVQHVERLTQMGVHSLKIEGRTKSFYYCARTAQVYRKAIDDAVAGKPFDDSLMTTLESLAHRGYTEGFLRRHTHDAYQNYDYGYSVSDTQQFVGEFTGKRRGAMAEVEVKNKFVLGDSLELMTPKGNVIFTLEAMENRKGEATDDAKGNGHFVYIPVPEELDLSYALLMRNLVQGQDTRNPTGK,not soluble
5,MGSDKIHHHHHHMSLPLRSIHYFVEVARCESFSLAAERLHVSQSAVSHQVALLEGYLGDDLFVRRGRKILLTAVGENYFNEVAGAINAIEGATANVRQYDTRQVKLAVHGSLAVKWLIPALDEFRQRYPNVELTLQMLTQDGNFDTQWADCFITTQPPGMGYQRYHLYDETLKPYCSKALWAEAHRLESAGDLIQYPLLSAISAFASGEPGTDWQRWFKKANLRLPVSARVHHFSHLLLAAEAAKYGQGIALLNEFMTTEQEREESLFELPFHSIQTDDSFYFVYPSSTAKSPGLESLGDWLVALCRTRH,not soluble
6,MDMQHDDLNYEYLYGTTYPLMKNAGKAVADAVMKNYPDARTVCVVAGTGNNGGDAIVAGSILSAKYDVRVLIVTEVRSELARRALSEYGGRVIGLDGMEECMKCDVIIDGIFGVGISGDPKDPYRSVIENINRSCSHVVSVDIPSGLGTRYAVKPEITVTFTMEKYGMNQDNSGKIIVADIGIPPDVRKYAGPGDLLYYPKPDPSSHKGMNGTLAIVGGWEFHGSSVIAALAAERIGLDLVRVFVSPRNYQIVSGYDPGIIVRQVEKLDEKKLSEIYGNSAILLGPGMGKGDDAMEAARKIVSDSRVPMVVDADALDAVGAYSGSFAGRKIIITPHKGEFRRISGFEPTEENAISYARKKGLIVVLKGQVDVITNGEEVHYAKGGNARMTMGGTGDLLAGIISAFLARSVDPMRACLMGTYLNKALGEAAYSKHGYWYTVTDMISEIPGVMGKYIKI,not soluble
7,MGHHHHHHSHMKIFKFTPENNLFYGYILEDMKTGFNILREIMVEGYRPSIARLYDAEDGTQHFTHFADGKCVLIFMAEGNPRIAKVTGEGIAEIVARYPQCQRVDSKLIETWFNNLNWGPDKVAAERVQILKTGNMGFTTEVSGCWSCIHEIYESVINRIRTEFPHADDITMLGGHSSHSYQNGTNMYFVYDYNVVDCKPEEEIDKYHNPLNKIICEETIRLGGSMVHHHGIGKHRVHWSKLEHGSAWALLEGLKKQFDPNGIMNTGTIYPIEK,not soluble
8,MFNGDDDFPMGAMHSFGQMHQQMMSDMNMMTGGMLRNMGMGGPMFGGLMVPSPFGAITDGSGQQPSRRRQELEMNPFAPFGGLLGGLGGMGMMMPPPGQGANMYMSSSVMTIGPDGKPRVEQQTVRRHGDVTETKRRVDKNGESSMSIGHSIGDRSHFIDKKRDREGNVRKQQRFQNLDEASAEAFDREFSSRVRQGYGSGSRSSNLREIDNGLSSSRRSPFGGAGASSSSRRMESRGASRGAPIVTLPEEEETAHSRSSTSHRVGGPLIREISEEEAEQAASSIPKRRRGQQ,not soluble
9,AGVFNLEGFGPVSRAMGGTGAAFDIGPAAMMENPATLGLMGEGRHFSLGLDVVSTDIKVTNTATGETASSGNHGNNNGPYFAPQTAFVYRQGRYAFGAGIFAEGGLGTQYGGSSFLSRTSNGVDTGLDQFSRLLVLRVPFSAAYHVTDKLTVGASVDAVWTSLNLGTLLDVSQIGTLAGQGRVSGTLVPTLLGVPGLSGGYIDFSRNAPVGGGVQAWGIGGRLGLTYQVTPDTRIGAAYQAKTHVGDLTGQATLSAVSSVAGNIPLKGDVTVRNFQMPAQLTVGISHQFNDQLSVSADYQRVFWSSVMKDMNVGFVQSGSAANLDLSLPQNYRDISVFGIGAEYRYNAKWTFRGGFHYAQEAIPGNMLLAVVPATPTTSLTGGVSYAIGKNDVIDFALSVALRKTLDNASQPNTAVPISVTHSQVNAVIAYQKRFHHHHHH,soluble
10,NKDFEWSTTGTFSLNSNKLISLSGSIFKSDYDYFNTGTVEYSGQVADSHRVQVGESIGNFYGFKVVDVDSEGRWIYEDRNGELVNYKDFTHAPEDKHVIGNGLPKWYAGWNNTLRYKNFDLNVTMRGAFGFQIINGGRMNYENVKNSRFENRLKSVNDLVFGKHTLSPEVEPEFNSYYVEDGDYWKIDNITLGYSFGQVGKYIKSLRIYGSVLNALTITGYKGIDPEVSTDGLTPGYDTRDRYPSVRSFTFGVNVKF,not soluble
11,RRRAKGLRREEVAQLAGISATWLTWLEQGRSESVSAQTLSRLAAALQLSGAETDYLFDLAGLKNPQEKRADANPQAREILEEMLPRIDMPAYVLDRLWRAVAWNRAAEELFC,not soluble
12,MSDAATRRLMKELAQLKSEAPEGLLVDNTSTSNDLKQWKIGVVGAEGTLYAGEVFMLQFTFGPQYPFNSPEVMFVGETIPAHPHIYSNGHICLSILSDDWTPALSVQSVCLSILSMLSSSKEKKHPIDDAIYVRTCSKNPSKTRWWFHDDSV,not soluble
13,SQELRGEIKLFCSVTASYSHLPELLSSFRLKHPYIEFKLLTGDPAQAIDKILHDEADIAISAMPEQLPSRIEFATISEIPLSVIAPLGISSFMDELQKEQPDWNEIPFIVPESGTARDRANTWFKQMKIKPNIYAQIAGHEAIV,not soluble
14,MSLTATTDGSTGASLRPLAASASDTDITIPAAAAGVPEAAARATRRATDFLLAKQDAEGWWKGDLETNVTMDAEDLLLRQFLGIQDEETTRAAALFIRGEQREDGTWATFYGGPGELSTTIEAYVALRLAGDSPEAPHMARAAEWIRSRGGIASARVFTRIWLALFGWWKWDDLPELPPELIYFPTWVPLNIYDFGCWARQTIVPLTIVSAKRPVRPAPFPLDELHTDPARPNPPRPLAPVASWDGAFQRIDKALHAYRKVAPRRLRRAAMNSAARWIIERQENDGCWGGIQPPAVYSVIALYLLGYDLEHPVMRAGLESLDRFAVWREDGARMIEACQSPVWDTCLATIALADAGVPEDHPQLVKASDWMLGEQIVRPGDWSVKRPGLPPGGWAFEFHNDNYPDIDDTAEVVLALRRVRHHDPERVEKAIGRGVRWNLGMQSKNGAWGAFDVDNTSAFPNRLPFCDFGEVIDPPSADVTAHVVEMLAVEGLAHDPRTRRGIQWLLDAQETDGSWFGRWGVNYVYGTGSVIPALTAAGLPTSHPAIRRAVRWLESVQNEDGGWGEDLRSYRYVREWSGRGASTASQTGWALMALLAAGERDSKAVERGVAWLAATQREDGSWDEPYFTGTGFPWDFSINYNLYRQVFPLTALGRYVHGEPFAKKPRAADAPAEAAPAEVKGSEGHHHHHH,soluble
